{"source": "paper PMC2665213", "about": "(Nucleic Acids Research, 2009)", "binders": {"B1": {"name": "TDP-43s (truncated mouse TAR DNA-binding protein 43 covering both RRM domains) (domain or fragment)", "chain": "MRGSHHHHHHGSQKTSDLIVLGLPWKTTEQDLKDYFSTFGEVLMVQVKKDLKTGHSKGFGFVRFTEYETQVKVMSQRHMIDGRWCDCKLPNSKQSPDEPLRSRKVFVGRCTEDMTAEELQQFFCQYGEVVDVFIPKPFRAFAFVTFADDKVAQSLCGEDLIIKGISVHISNAEPKHNKLN"}, "B2": {"name": "10-mer crystal ssDNA (ssDNA)", "DNA": "GTTGAGCGTT"}, "B3": {"name": "(UG)6 (ssRNA)", "RNA": "UGUGUGUGUGUG"}, "B4": {"name": "(UG)3 (ssRNA)", "RNA": "UGUGUG"}, "B5": {"name": "RRM1 (first RRM domain of mouse TDP-43) (domain or fragment, UniProt Q921F2 101-191, looked up)", "chain": "QKTSDLIVLGLPWKTTEQDLKDYFSTFGEVLMVQVKKDLKTGHSKGFGFVRFTEYETQVKVMSQRHMIDGRWCDCKLPNSKQSPDEPLRSR"}, "B6": {"name": "(UG)8 (ssRNA)", "RNA": "UGUGUGUGUGUGUGUG"}, "B7": {"name": "(UG)4 (ssRNA)", "RNA": "UGUGUGUG"}, "B8": {"name": "RRM2 (second RRM domain of mouse TDP-43) (domain or fragment)", "chain": "MRGSHHHHHHGSKVFVGRCTEDMTAEELQQFFCQYGEVVDVFIPKPFRAFAFVTFADDKVAQSLCGEDLIIKGISVHISNAEPKHNKLN"}}, "key": {"SEC [1]": {"molecular_target": "the molecule itself", "test": "SEC"}, "TDP-43 RRM2 [2]": {"molecular_target": "T1, TDP-43 RRM2 (mouse, UniProt Q921F2 192-265)", "test": "crystal structure"}, "TDP-43s (RRM1-RRM2) [3]": {"molecular_target": "T2, TDP-43s (RRM1-RRM2) (mouse, UniProt Q921F2 101-265)", "test": "filter binding"}, "TDP-43 RRM1 [4]": {"molecular_target": "T3, TDP-43 RRM1 (mouse, UniProt Q921F2 101-191)", "test": "filter binding"}, "TDP-43 RRM2 [5]": {"molecular_target": "T1, TDP-43 RRM2", "test": "filter binding"}, "TDP-43s (RRM1-RRM2) [6]": {"molecular_target": "T2, TDP-43s (RRM1-RRM2)", "test": "filter binding", "remark": "listed apart in the source"}, "TDP-43 RRM1 [7]": {"molecular_target": "T3, TDP-43 RRM1", "test": "filter binding", "remark": "listed apart in the source"}, "TDP-43 RRM2 [8]": {"molecular_target": "T1, TDP-43 RRM2", "test": "filter binding", "remark": "listed apart in the source"}, "SEC [9]": {"molecular_target": "the molecule itself", "test": "SEC", "remark": "listed apart in the source"}}, "note": "Read-outs that look alike come from different tables or passages of the source.", "data": [{"binder": "B1", "values": [{"measurement": "stoichiometry N", "setting": "SEC [1]", "result": 2}]}, {"binder": "B2", "values": [{"measurement": "binding result", "setting": "TDP-43 RRM2 [2]", "result": "binds"}]}, {"binder": "B3", "values": [{"measurement": "Kd", "setting": "TDP-43s (RRM1-RRM2) [3]", "result": "14.2 ± 1.4", "unit": "nM"}, {"measurement": "Kd", "setting": "TDP-43 RRM1 [4]", "result": 65.2, "unit": "nM"}, {"measurement": "Kd", "setting": "TDP-43 RRM2 [5]", "result": 4240, "unit": "nM"}]}, {"binder": "B4", "values": [{"measurement": "Kd", "setting": "TDP-43s (RRM1-RRM2) [6]", "result": 3060, "unit": "nM"}, {"measurement": "Kd", "setting": "TDP-43 RRM1 [7]", "result": 4690, "unit": "nM"}, {"measurement": "Kd", "setting": "TDP-43 RRM2 [8]", "result": 379, "unit": "nM"}]}, {"binder": "B5", "values": [{"measurement": "stoichiometry N", "setting": "SEC [1]", "result": 4}]}, {"binder": "B6", "values": [{"measurement": "Kd", "setting": "TDP-43s (RRM1-RRM2) [6]", "result": 2.79, "unit": "nM"}]}, {"binder": "B7", "values": [{"measurement": "Kd", "setting": "TDP-43s (RRM1-RRM2) [6]", "result": 115, "unit": "nM"}]}, {"binder": "B8", "values": [{"measurement": "stoichiometry N", "setting": "SEC [9]", "result": 2}, {"measurement": "stoichiometry N", "setting": "SEC [1]", "result": 4}]}]}
